Molecular target: C. elegans DPF-3 (C. elegans)
Experiment: cryo-EM structure

With C. elegans DPF-3 (enzyme) as the substance, how does the stoichiometry N read?
The stoichiometry N was 2.

Source: publication doi:10.1101/2023.11.17.567387
